Experiment: label from the status in PepcDB records
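Note: failed if final PepcDB status was selected cloned or expressed and not failed if soluble or beyond.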

Row | Sequence | protein production
1 | MSELITYHAEDGIATLTLNNGKVNAISPDVITAFNAALDRATEERAVVIITGQPGILSGGYDLKVMTRGPQEAISLVTAGSTLARRLLSHPFPVVVACPGNAVAKGAFLLLSADYRIGVEGPYKVCLNEVQIGMTMHHAGIELARDRLRRSAFHRSVINAEVFDPQGAVDAGFLDKVVPAEQLQEAAMTAARELKKLN | failed
2 | MMNYNTPKVSIVVPSLNSISYIRECIDSILNQTLKDIEILCIDANSTDGTLEVLKNYEKKDKRLRVIISDKKSYGYQMNLGIKEAKGEYLGIVESDDYIKTNMYERLYEIAKKNDCEVVKGDFYIFAYGKTEYVNVLRNSCEDIYNYKVNWNKDIRIFLGSDGINPIGIYRLDLLRTNQIKLNETPGASYQDNGLWFQIFALAKSIYFINEAFYMLRRDNPNSSVKSKEKVYCACEEYDFIRDFLKKHPDLEKTLAPICALHRFGNYMFTLERIDERYKLDFLKRFSQDFRKILKDKELDENLFGNINMQRINKIIENPVIYYYFSRGARARLQNQLVYRLGKVVVEAKSFNKIIKLPFLMLKICLEHNFEHKVYRSIVQFRPDLKLLPLECYLDYHEALVIKEHLSYKFGKLILLSFKGWYKGKIFILPFMLKKRYKEYKNKMILEHHHHHH | failed
3 | MSDNYKFFRHDNCEYFPCHKVKDKETFNCLFCYCPLYFLENCGGNKSDFNGVKDCSNCLIPHSKNGYDYIINKIREVNKEKRAKNNLTLEHHHHHH | not failed
4 | MALILTFLGKSGVARTKIAIAAAKLLASQGKRVLLAGLAEPVLPLLLEQTLTPDPQQIAPNLEVVQFQSSVLLERNWEEVKKLEAQYLRTPIIKEVYGQELVVLPGMDSALALNAIREYDASGKYDAIVYDGTGDAFTLRMLGLPESLSWYVRRFRQLFVNSDLGKTIAESPLIQPLISSFFNVNWTADNFAQPTNQVNNFLDKGKEALADPKRVAAFLVTTADPLEVVSVRYLWGSAQQIGLTIGGVIQVSSQTEGDLSAEFTPLSVTVVPDVTKGDWQPLIDALPNFVEQAEQAPKPITIDTHNRQVRLFLPGFDKKQVKLTQYGPEVTVEAGDQRRNIFLPPALSGRPITGAKFQNNYLIISFLEHHHHHH | not failed
5 | MNHSNLTILSVCSNFVIVVLKLIVGFFTGSVAVISEGIHSSMDLFASIITFFSIRISNQPADEDHPYGHGKAENIAGTIETLLIFVAGIWIIVESVNKLVNPHEIRFPALGIMVMLFGAIVNIIVSRIIKKAADEANSVAMKSNALHLYTDVFTSLGIALSLFLVYITGWLWLDPVIAILTAFYIMYEAYKLLKESFPPLMDKRLSADEEEAIKQIILAHKTRFIEFHDFRSRRAGAEEYIDFHLVVSSSMTIESAHSLCDEIEAEIMNFYAKAEVLIHLEPEEERVLTRI | failed
6 | MLHGLKQRLEALHHPGELEGSPQNLHQLLGVSIEQSVPQAQTMLVERHLASLTGDEARLLAALSDGSAFALLTLYSGSRFSRGEVLYRYSNAGRAAGIQCNDFIALYLNHLFAQGLVIASDFTESLRTDYELCEGDSDFRKAQAELQIHLPKLSIRRETLRISPLGRQLWTLMTTPADIEE | not failed
7 | MSLTNHHPSSTGPQHPYRAGWIHFTNVAPILDSLELPPGVTAITGVPTQMNAALLSGEVDIANVSAVEFIRHADTLAALPDFSVAVLGPVYSVNLFHTCPLPELRRVALTSQSAMSVALLEVLLRQKGLSPVLERAEGTAESLLAAGYDGVLRIGDDALREWYGVVGPLTPERTMTSLPHTGRGITVTDLAQEWFDLTGHPFTFAVWAYRKDNPPPAALLQAMREARRRGIGHLAEVSQRHAEKLGLPERVVQHYLWNFRYHLEAPDRLGLREFADLAVPGHAELTFGAREEAEGHHHHHH | not failed
8 | MASQTNQTVVDTKKIETENPPKPQVPASSCRKRVKDDNATFFANLKDHMDEFIHASMDEHKTCFKNTMDKIFGSFSKAEAVAEKQIEAKEVVEIHSPLQTAVTK | not failed
9 | MGRKVRAYFVHLFTASGVAFAFLAMREVVRVDLDPRWVFGWLTLAVFIDAADGPLARLWDVKLYASRILGKTIDLIVDYLTFTFIPLTLVWRMDWLPGWDGLWVTLAMVASLLGFANTAAKQSQEGFFLGFPSYWNVVAYYVGLLAVEYGAVGAYVSLGSVLTLTVLTLVPVRFVYPNAAPTPWRAIVTVGGVAWLGLLLALLPTFPELPAWGGDWVLGVSFVYPAFYFGLSGWLDWTSRQS | failed
10 | SPEYGMPSVTFGSVHPSDVLDMPVDPNEPTYCLCHQVSYGEMIGCDNPDCSIEWFHFASCGADNQPRGKWXFPRCSQE | not failed
11 | MSRAEKSTAEQSGHIQHGVRKAAGVVFMVFGTMCFASKSIFVKWAYEQGAQPEAVLLYRQLFAAPLFWLIFIVYRSKLPAKPEKAEIFKACAAGLLCFFLSPLLDFIGLHGVSATVERMIVMSYPMFVLIITAFVNKKMVSGKTFAAILLVNAGLFLAVGGWDVQALEANLSGAFLILLSAVAYAAYLVVAGGLVRQIGGIRMNAYGMSAASLAMAGYALLRSLREQPGIVLSYPPAMYGFFMIIAAVTTVIPFLFMLEGMKRIGAERGAVISMIGPVLTIFGGVLFLNERLTPVQWLGCLLVHLTVSLLEYRK | failed
12 | MLDNRPIGVFDSGIGGLTIVKNLMSILPNEDIIYFGDIARIPYGTKSRATIQKFAAQTAKFLIDQEVKAIIIACNTISAIAKDIVQEIAKAIPVIDVITAGVSLVDNLNTVGVIATPATINSNAYALQIHKKNPNIEVYSNPCGLFVSMIEEGFVSGHIVELVAKEYLSYFHDKNIQALILGCTHYPIIKESIAKILDVKLIDPSLQASKMLYSLLFENKLLNTTKSNPEYRFYVTDIPLKFRSVGEMFLQTEMQHLEIVSLDSY | not failed
13 | MHVPIRLLEWFKVEQTLVIQKKKRFGFSQGIGITLLIAIVAKYLAELPFLNIMGQLVIAILIGMVWRAAIGVPHDAIAGTNFASKKLLRFGIILLGMRLNLVDIAKAGPKVLVIAAVVITFTIFVVYGLTKVFKVEKKLGILTACGTAICGAAAVVAIAPQVKAKDDETAVGAAIIAILGTIFTLIYTLLYPVLGLSPYGYGVFSGATLHEIAHVIAAAAPGGSAAVDIAVIVKLTRVAMLVPVAILIGLWFGKSEGSKEKRSWRDLPIPWFIFGFLAMSAVHSLGIIPEVVAGYIVVIAYMLIAMAMAGLGLNVEFKTFRKLGSKAFVAGLIGSVCLSVLGYVLVYALGFM | failed
14 | MLVKININGKKKSVDIEPEEYLVDTLRKVGNLSVKRGCDTGCCGLCTVLIDKKPTLSCATLTLRALDKEITTIEGLENEVKEFSEVLVKEGAEQCGFCSPGFILTVLAMKDELENPTDDEIKHYLTGNLCRCTGYMGQLRAIKTYLEVK | failed
15 | MRPNLLEALRAMTEGELYAALYQDPLTGVLNRRAFAGAIEEARAVALVDMDSLKWINDNLGHRAGDRALRVLADGLVRSFGADWVFRVSGDEFAVMDGDAEQLAQRLLLLRSSVPGFSFGTGSDMAEADRDMRHDKAEREKSGHRAARGLRPPWVP | failed
16 | PGIERLAEEATASFPEARIAVLSSDMFGTARALKERIEAIAAGEADIVIGTQLVAKGHNFPLLTLVGVIDADLGLQGSDLRAAERTFQLMRQVAGRAGRAEKPGQALLQTYQPE | failed
17 | MDIRTITSSDYEMVTSVLNEWWGGRQLKEKLPRLFFEHFQDTSFITSEHNSMTGFLIGFQSQSDPETAYIHFSGVHPDFRKMQIGKQLYDVFIETVKQRGCTRVKCVTSPVNKVSIAYHTKLGFDIEKGTKTVNGISVFANYDGPGQDRVLFVKNI | not failed
18 | MYYKFGEIKNKIISFNGFEFKVSAMKKHDGISIQVKDMNNVPLKSFHVVDLSELYIAMDAMRDVINEWIEENTDERDRLINLVMRW | failed
19 | TLQEYQKRMKKLDQQYKERIRNAELFLQLETEQVERNYIKEKKAAVKEFEDKKVELKENLIAELEEKKKMIENEKLTMELTGDSMEVKPIMTRKLRRRPNDPVPIPDKRRKPAPAQLNYLLTDEQIMEDLRTLNKLKSPKRPASPSSPEHLPATPAESPAQRFEARIEDGKLYYDKRWYHKSQAIYLESKDNQKLSCVISSVGANEIWVRKTSDSTKMRIYLGQLQRGLFVIRRRSAA | failed
20 | MRGCNKETGEFLGPSRSQQRRTALEVLVLSEKLAALTPAQLAKLPIPERLLPHITETKRITSHIARKRQLAFLAKQMRREDDTTLEAIREKLNASGIQAQREVATLHRTEQWRKRLLEEGDSALTELLNQYPQADCGKLRQLLRNSKTEQARNKAPQAFRELYQVLHGLIITQ | not failed
21 | MPHQKIYLVGAGIEGWEGFGAKALEVIGKAEVLVGHKRHLDIFSDFTGKKQELGDLSILLEQLRSTDKRTVVLGSGDPNFFGIARFLLRNLPKERIEIFPNVTSVQYAFAQIKEPWDDAIFVSVHGRGLKGAVDRIVAAEKVAVLTDKTNSPAAIARELIARGAEGYEAWLCENLGLPGEKFTRTDVKGLLELPAAELNILILIKAWEPQLAQYPVIGIDDDEFATAKKLITKQEVRAVTLSKLRLQDDLVMWDIGAGSASVSIEASNLMPNGRIFALERNPQYLGFIRDNLKKFVARNVTLVEAFAPEGLDDLPDPDRVFIGGSGGMLEEIIDAVDRRLKSEGVIVLNAVTLDTLTKAVEFLEDHGYMVEVACVNVAKTKGLTEYKMFESHNPVYIITAWKSDE | failed
22 | MQSTAFSLYIIDTLHDSLIFATILMSALLPKIILGPLGGVFVDWFDRKKFLVVIDLISGVLLLISALVYGNNLSLPIIYFICISLGIMNSVDEPLVVALIPSLVEKEKLVTANSINMFSTALGNIIGPILGAVVYSSFGIDTILYINASSFIIGAILEFMINIENKKKISQSKTIFNFLEDFKAGLIYIVRNRIILVIVVSIFFQNFFFNGATTVGVPFLAKQILKVSNAEFAILETTLIVGSIFGLLVASNLIKDKPLASLFPKLLFVISVCFLMIGLICIFLLKKQLMAYVFIAIIYICLGMLSMNVNVLFQTEMQKIVDESMFGRVSSLILSLIMSSIPLGQLVYGYLFKVVSPSIPFLVTFIAICCVSTLFSLSLRNSEL | failed
23 | MEITLNSGFKMPIIGLGVWRMEKEELRDLIIDAIKIGYRHLDCAANYKNEAEVGEALTEAFTTGLVKREDLFITTKLWSSDHGHVIEACKDSLKKLQLDYLDLFLVHIPIATKHTGIGTTDSALGDDGVLDIDTTISLETTWHDMEKLVSMGLVRSIGISNYDVFLTRDCLAYSKIKPAVNQIETHPYFQRDSLVKFCQKHGICVTAHTPLGGATANAEWFGTVSCLDDPVLKDVAEKYKQTVAQIVLRWGIQRNTVVIPKTSKPERLEENFQVFDFQLSKEDMEVIKSMERNYRTHQTAKFWGIELYA | not failed
24 | MLDRVIYSLIQTENKSVVNELFFRIAEGEDSFAELARKYSQGAEADRGGIIGPVELGSITPNFAQLLYTSQVGVVQPPVAFGNTWVIVRVEKLIPAQLEHHHHHH | failed
25 | MTNLLVIGATGNIGQPLIRDLQDDPDVHLFAGVHNSEHAKQALNGLKVQVRRFDFLDPATFEQALADIDKVFFVRPPQLAKPKEDMYPFLDALVARHVKQVVFVSLLGVAHNPMTPHHQIEKRIVELGLPYTFIRPSFFMQNLNTTHQADIVGHRDLFVPAGHARTSFIDTRDIGATAAVILRDPAYIGQKLDITGAQALTYADAAQIMTMELGVPITYSKPSLWRFRKVMLQRGLPKNYVNVMVMLYLITQLGNAKTVTTTLPNVLGRPAISFEQYVHDYRAEFLPKPLSLEHHHHHH | failed
26 | GVLILHGFTANLESVRALFGPLGRFDLKMATPLLRGHGAASPDELRGVTWREWLDDAENAFETLTGTGGKAVVIGHSMGALLALQLAARRPELVDSVILATPPVRLTSPLGPGRPLHFLAPLVSHVVDRWDMEARFADPGSAIIPKQYDWAPTKTILSMFELLEETMRITGRVRVPALILQARHESVVLPESAEILTRAIATPPEAKSIVWFDKTDHQIFCDCERKAAVDAVVSFVSKRFP | failed

— a protein production outcome set (Wang et al. 2014)
